The term IC50 denotes the midpoint of a concentration-inhibition curve. Low values mean greater potency, high ones weaker potency.

The results in this text go back to paper PMC11231100 (2024).

Test [1] concerns the target T1, CD47 (human (endogenous in Jurkat and Reh), UniProt Q08722 19-323). The test can be described thus: FACS; competition with SIRPα-mFc on Reh cells (CD38high/CD47+). A general note: A flow cytometer gives signals particle by particle.
Test [2] concerns the target T1, CD47. The experiment in a line: FACS; competition with SIRPα-mFc on Jurkat cells (CD38low/CD47+).

B1: IMM01 (SIRPα Fc fusion protein) (Fc fusion)
chain: EEELQVIQPDKSVLVAAGETATLRCTATSLIPVGPIQWFRGAGPGRELIYNQKEGHFPRVTTVSDLTKRNNMDFSIRIGNITPADAGTYYCVKFRKGSPDDVEFKSGAGTELSVRAKP
modifications: SIRPα IgV domain (SD1), limits by convention (complete V domain through its last strand, just before the first C1 domain); dimeric through an Fc that is left out; allelic variant and any engineered substitution not given
On to B1, for which the half-inhibitory concentration (IC50) was found to be 0.216 µg/mL with CD47 [1] and 0.0977 µg/mL with CD47 [2].
